The values below come from publication PMC6731260.

A short description of data set [1]: CHX chase, FLAG-ESRRB immunoblot, mESCs. The note with it: glycan lost; control: DMSO. A general note: Immunoblotting shows a protein as a band on a membrane.
Data set [2] can be described thus: ESRRB-responsive element luciferase reporter, HEK293T. To be noted: glycan lost. For orientation: Reporter assays use an easily measured gene product as a stand-in for the process of interest.
Data set [3] can be described thus: CHX 12 h, immunoblot, HEK293T. To be noted: glycan lost; control: EGFP-ESRRB wild type.
Data set [4] in a line: CHX chase up to 12 h, immunoblot, mESCs. To be noted: glycan lost; control: FLAG-ESRRB wild type.
Data set [5] is described as follows: GFP immunoprecipitation, ubiquitin blot, HEK293T. The note with it: glycan lost; control: wild type.

B1: ESRRB: Ac45SGlcNAc (OGT inhibitor) (protein)
parent chain: MSSEDRHLGSSCGSFIKTEPSSPSSGIDALSHHSPSGSSDASGGFGIALSTHANGLDSPPMFAGAGLGGNPCRKSYEDCTSGIMEDSAIKCEYMLNAIPKRLCLVCGDIASGYHYGVASCEACKAFFKRTIQGNIEYNCPATNECEITKRRRKSCQACRFMKCLKVGMLKEGVRLDRVRGGRQKYKRRLDSENSPYLNLPISPPAKKPLTKIVSNLLGVEQDKLYAMPPNDIPEGDIKALTTLCELADRELVFLINWAKHIPGFPSLTLGDQMSLLQSAWMEILILGIVYRSLPYDDKLAYAEDYIMDEEHSRLVGLLDLYRAILQLVRRYKKLKVEKEEFMILKALALANSDSMYIENLEAVQKLQDLLHEALQDYELSQRHEEPRRAGKLLLTLPLLRQTAAKAVQHFYSVKLQGKVPMHKLFLEMLEAKV
With B1, the degradation_or_half_life result in data set [1] is “decreases”. The “other: transcriptional activity” value in data set [2] (control: DMSO) is reported as “decreases”.

B2: ESRRB: S25A (protein)
parent chain: B1 parent chain
Turning to B2, the degradation_or_half_life entry in data set [3] and in data set [4] was “decreases” each time. The “other: ubiquitination” value in data set [5] is “increases”. Also, the “other: transcriptional activity” value in data set [2] (control: FLAG-ESRRB wild type) is listed as “decreases”.
